Data published in doi:10.1101/308353.

Biological target: GFP-βRat CaMKII holoenzyme (rat) (UniProt P08413)
Assay: single molecule TIRF microscopy

UniProt P08413, sequence (P08413 whole entry): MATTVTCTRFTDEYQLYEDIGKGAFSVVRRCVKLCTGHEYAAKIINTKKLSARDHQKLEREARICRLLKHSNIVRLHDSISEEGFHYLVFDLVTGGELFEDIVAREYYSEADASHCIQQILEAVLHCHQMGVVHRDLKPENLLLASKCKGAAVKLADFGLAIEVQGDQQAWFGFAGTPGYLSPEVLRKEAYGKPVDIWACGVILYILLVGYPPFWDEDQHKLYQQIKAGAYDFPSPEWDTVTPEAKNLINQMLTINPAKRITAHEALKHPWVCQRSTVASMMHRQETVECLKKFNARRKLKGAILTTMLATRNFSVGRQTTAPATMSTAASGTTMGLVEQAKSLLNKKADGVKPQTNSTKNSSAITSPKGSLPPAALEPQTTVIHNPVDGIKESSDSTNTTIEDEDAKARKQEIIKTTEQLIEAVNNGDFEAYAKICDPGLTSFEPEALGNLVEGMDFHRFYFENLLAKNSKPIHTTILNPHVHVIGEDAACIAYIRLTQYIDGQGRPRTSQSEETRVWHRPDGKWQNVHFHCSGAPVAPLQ

Cy3 conjugated G-actin (from UniProt P68135 1-377) (natural protein)
Pearson's correlation of co-localization: 0.33
